In paper PMC7887213 (Nature Communications, 2021):

Columns and labels:
Conditions in all cases: both partners purified
[1] = target: T1, NPNA4 peptide (Ac-[residues removed]-NH2) (Plasmodium falciparum (synthetic CSP …); test: ITC; peptide in the syringe, Fab (~10 uM) in the cell; DPBS; 25 C; single-site binding model; triplicate; apparent affinity
T1 construct: source: synthetic peptide, bought: Innopep Inc

[2] = target: T2, NPNA6 peptide (Ac-[residues removed]-NH2) (Plasmodium falciparum (synthetic CSP …); test: as above
T2 construct: source: synthetic peptide, bought: Innopep Inc

[3] = target: T3, NPNA2 peptide (Ac-[residues removed]-NH2) (Plasmodium falciparum (synthetic CSP …); test: as above
T3 construct: source: synthetic peptide, bought: Innopep Inc

[4] = target: T4, Ac-[residues removed]-NH2 (NPNA4 peptide) (Plasmodium falciparum (synthetic CSP …)); test: ITC; peptide in the syringe, Fab (~10 uM) in the cell; DPBS, 25 °C; single-site binding model; triplicate, mean ± SD; No. of sites = peptide per Fab
T4 construct: also called 16-mer peptide; source: synthetic peptide; bought: Innopep Inc

[5] = target: T5, Ac-[residues removed]-NH2 (NPNA2 peptide) (Plasmodium falciparum (synthetic CSP …)); test: as above
T5 construct: also called 8-mer peptide; source: synthetic peptide; bought: Innopep Inc

[6] = target: T6, Ac-[residues removed]-NH2 (NPNA6 peptide) (Plasmodium falciparum (synthetic CSP …)); test: as above
T6 construct: also called 24-mer peptide; source: synthetic peptide; bought: Innopep Inc

[7] = target: T3, NPNA2 peptide (Ac-[residues …); test: crystal structure; Fab at 10 mg/ml mixed with peptide at 1:5 molar ratio of Fab to peptide; sitting drop vapor diffusion
NPNA3 peptide = target: T7, NPNA3 peptide (Plasmodium falciparum (synthetic CSP …)); test: as above
T7 construct: source: synthetic peptide, bought: Innopep Inc

B1: Fab224 (Fab, V domains shown)
VH: EVQLVESGGGLVQPGRSLRLPCTASGFSFGDHAMSWVRQAPGKGLEWVGFIRKTTYGATTHYAAAVRGRFTISRDDSKSIVYLQMNSLKTEDTAVYFCTRVQLDYGPGYQYYGMDVWGQGTTVTVSS
VL: ESVLTQPPSVSGAPGQRVTISCTGMNSNIGAGYDVYWYQQLPGRAPKLLIYGNSNRPSGVPDRFSGSRSGTSASLAITGLQAEDEADYYCQSYDTSLNGWAFGGGTKLTVL
notes: also called mAb224; source: ExpiCHO cells, purified (HiTrap Protein G, SEC)
Kd [1]: 126 nM
Kd [2]: 141 nM
Kd [3]: 14200 nM

B2: Fab239 (Fab, V domains shown)
VH: QVQLVESGGGVVQPGRSLRLSCAASRLTFRNFGMHWVRQTPGKGLEWVAVIWHDGSNKFYADSVEGRFTISRDNSKNTLYLQMNSLRDEDTAIYYCAKDWGGASDRVFDYWGRGTLVIVSS
VL: DIQMTQSPSTLSASVGDRVTITCRASQSVSTSLAWYQQKPGKAPNLLIYQASTLYRGVPSRFSGSGSGTEFTLTIGSLQPDDFATYYCQHYNSYSRITFGQGTRLEIK
notes: also called mAb239; source: ExpiCHO cells, purified (HiTrap Protein G, SEC)
Kd [1]: 20 nM
Kd [2]: 10 nM
Kd [3]: 641 nM

B3: Fab397 (Fab, V domains shown)
VH: EVQLVKSGGGLVKPGGSLRLSCAVSGFTFTDAWMSWVRQAPGKGPEWVGRIKSNPDGGTTDYAAPVRGRFTISRDDSKNTLYLQMNNLKTEDTAVYYCITDRDFYRSGGSWGQGTLVTV
VL: DIVMTQSPLSLPVTPGEPASISCRSRQSLLYSNGDNYLDWYLQKPGQSPQLLIYLGSNRAPGVPDRFSGSGSGTDFTLKISRVEAEDVGVYYCMQTLQTPHTFGQGTKLEIK
notes: also called mAb397; source: ExpiCHO cells, purified (HiTrap Protein G, SEC)
Kd [1]: 255 nM
Kd [2]: 92 nM
Kd [3]: 2740 nM

B4: Fab356 (Fab, V domains shown)
VH: VQLVESGGGVVQPGRSLRLSCAASGFTFRNFGMHWVRQTPGKGLEWVAVIWHDGSNKFYADSVEGRFTISRDNSKNMIYLQMNSLRVEDTAIYYCARDSLFYDHDNSGYYGYWGQGTLVTVSS
VL: QIVMTQSPATVSVSPGERATLSCRASRSVTSKLAWYQQKPGQAPRLLIYGASTRATGIPARFSGSGSGTEFTLTISSLQSEDFAVYFCQQYNNGFTFGPGTKVDFK
notes: also called mAb356; source: ExpiCHO cells, purified (HiTrap Protein G, SEC)
stoichiometry N [4]: 0.542
stoichiometry N [5]: 1.29
stoichiometry N [6]: 0.354

B5: Fab356 (Fab, V domains shown)
VH: VQLVESGGGVVQPGRSLRLSCAASGFTFRNFGMHWVRQTPGKGLEWVAVIWHDGSNKFYADSVEGRFTISRDNSKNMIYLQMNSLRVEDTAIYYCARDSLFYDHDNSGYYGYWGQGTLVTVSS
VL: QIVMTQSPATVSVSPGERATLSCRASRSVTSKLAWYQQKPGQAPRLLIYGASTRATGIPARFSGSGSGTEFTLTISSLQSEDFAVYFCQQYNNGFTFGPGTKVDFK
notes: as for B4
Kd [1]: 82 nM
Kd [2]: 30 nM
Kd [3]: 8270 nM

B6: Fab311 (Fab, V domains shown)
VH: EVQLVESGGGVVPPGRSLRLSCATSGFTFSNYGMHWVRQAPGKGLEWVAIIWYDGSRNFYAASVEGRFTISRDNSKNTLYLQMNSLRVEDTAVYYCARAAYYDTSGYGDYWGQGTLVTVSS
VL: ESVLTQPPSVSGAPGQTVTISCTGGSSNIGAGYDVHWYQQLPGTAPKLLIYGNINRPSGVPDRFSGSKSGTSASLAITGLQAEDEADYYCQSYDRRLSGSWVFGGGTKLTVL
notes: also called mAb311; source: ExpiCHO cells, purified (HiTrap Protein G, SEC)
stoichiometry N [4]: 0.578
stoichiometry N [5]: 1.27
stoichiometry N [6]: 0.386

B7: Fab311 (Fab, V domains shown)
VH: EVQLVESGGGVVPPGRSLRLSCATSGFTFSNYGMHWVRQAPGKGLEWVAIIWYDGSRNFYAASVEGRFTISRDNSKNTLYLQMNSLRVEDTAVYYCARAAYYDTSGYGDYWGQGTLVTVSS
VL: ESVLTQPPSVSGAPGQTVTISCTGGSSNIGAGYDVHWYQQLPGTAPKLLIYGNINRPSGVPDRFSGSKSGTSASLAITGLQAEDEADYYCQSYDRRLSGSWVFGGGTKLTVL
notes: as for B6
Kd [2]: 19 nM
Kd [3]: 152 nM

B8: Fab364 (Fab, V domains shown)
VH: QVQLVESGGGVVQPGGSLRLSCAASGFTFSGYGMHWVRQVPGKGLEWVAIIWFDGSQKYYADSVQGRFTISRDNSKKTLFLRMNSLRAEDTAVYYCAKVHDDEPTQDYWGQGTLVTVSS
VL: DIQMTQSPSTLSASVGDRVTITCRASQGISTSLAWYQQKPGKAPKLLIYKASSLESGVPSRFSGSGSGTEFTLTITSLQPEDFATYYCQQYKRYWTFGQGTKVEIK
notes: also called mAb364; source: ExpiCHO cells, purified (HiTrap Protein G, SEC)
Kd [1]: 28 nM
Kd [2]: 27 nM
Kd [3]: 47 nM

B9: Fab395 with elbow mutations in the heavy chain (crystallised form) (Fab, V domains shown)
VH: QEQLVESGGGVVQPGRSLRLSCAAASEFCFSCYGMHWVRQAPGKGLEWVAVIWHDGSNQHFADSVKGRFTISRDNSKNIMYLQMNSLRAEDTAVYYCASATRYDILTGAFDYWGQGTLVTVVS
VL: DIQMTQSPSTLSASVGDRVTITCRASQSISTWLAWYQQKPGKAPKLLIYKASSLESGVPSRFSGSGSGTEFTLTISSLQPDDFATYYCQQYSRYWTFGQGTKVEIK
notes: source: ExpiCHO cells, purified (HiTrap Protein G, SEC)
binding result [7]: binds

B10: Fab399 (Fab, V domains shown)
VH: EVQLVESGGGLVQPGRSLRLSCTTSGFTFGDYAMSWFRQAPGKGLEWVGFIRSKGFGGTAEYAAFVKGRFTISRDDSRSIAYLQMTSLKPEDTAVYYCSRVGVVIATAVYWGQGTLVTVSS
VL: DILMTQTPLSLSVTPGQPASISCKSSQSLLDNDGKTYLYWYLQKPGQSPQLLIYEVSNRFSGVPERFSGSGSGTDFTLKIRRVEAEDVGVYYCMQRIDLPWTFGQGTKVEIK
notes: also called mAb399; source: ExpiCHO cells, purified (HiTrap Protein G, SEC)
Kd [1]: 5920 nM
Kd [2]: 94 nM
binding result (NPNA3 peptide): binds

B11: Fab366 with elbow mutations in the heavy chain (crystallised form) (Fab, V domains shown)
VH: QVQLVQSGAEVKKPGASARVSCKASGYTLTDFYLHWVRQAPGQGLEWMGWLNPHSGGTNYAQKFLGRVSMTRDTSISTAYMELNKLISDDTAVYFCVRSDQEALRGAFDIWGQGTMVFVVS
VL: DIQMTQSPSSLSASVGDTVTITCRASQSINDYLNWYQQKPGKAPKLLIYATSSLHSGVPSRFSGSGFGTDFTLTISSLQPEDSATYLCQQSHSLWTFGQGTKVEVK
notes: as for B9
binding result (NPNA3 peptide): binds

B12: Fab317 (Fab, V domains shown)
VH: QMQLVESGGGVVQPGRSLRLSCTASGFTFSTYAMHWVRQSPGQGLQWVAVISYHSTNKYYEDSVRGRFTISRDNSKNTLYLQMNSLRAEDTAVYYCARDGYSSSFFDFWGQGTLVTVSS
VL: DIQMTQSPSTLSASVGDRVAITCRASQSISRWLAWYQQQPGKAPKLLMSGASVLESGVPSRFSGSGSGTEFTLTISSLQPDDFATYYCQHYNSYFVTFGQGTKVEIK
notes: also called mAb317; source: ExpiCHO cells, purified (HiTrap Protein G, SEC)
Kd [1]: 70 nM
Kd [2]: 111 nM
Kd [3]: 132 nM
